Literature values as cited in patent US20070178499.

Columns and labels:
[1] = tested on: Aart(S) 6-finger (artificial); conditions: CITED?; affinity stated without method
[2] = tested on: E2C(S) 6-finger (artificial); conditions: CITED (Beerli 2000)

Substance	Kd [1] [pM]	binding signal (fold loss in affinity vs n8) [2]
Aart 18-bp target site	7.5	–
E3 site of erbB-3	–	15
